T1: SpnNrdR (Streptococcus pneumoniae TIGR4, UniProt P67318 1-157)
T1 sequence: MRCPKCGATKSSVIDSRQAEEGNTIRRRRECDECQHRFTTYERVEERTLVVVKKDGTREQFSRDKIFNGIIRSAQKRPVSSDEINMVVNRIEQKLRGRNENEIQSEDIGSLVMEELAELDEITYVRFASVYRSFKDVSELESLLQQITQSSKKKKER

T2: LmoNrdR (Listeria monocytogenes serotype 1/2a …, UniProt Q8Y6W9 1-154)
T2 sequence: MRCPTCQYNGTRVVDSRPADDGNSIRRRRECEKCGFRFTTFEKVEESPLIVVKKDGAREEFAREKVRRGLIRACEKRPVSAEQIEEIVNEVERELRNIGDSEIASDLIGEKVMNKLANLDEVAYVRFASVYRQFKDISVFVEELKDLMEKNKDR

T3: ScoNrdR (Streptomyces coelicolor, UniProt O69980 1-182)
T3 sequence: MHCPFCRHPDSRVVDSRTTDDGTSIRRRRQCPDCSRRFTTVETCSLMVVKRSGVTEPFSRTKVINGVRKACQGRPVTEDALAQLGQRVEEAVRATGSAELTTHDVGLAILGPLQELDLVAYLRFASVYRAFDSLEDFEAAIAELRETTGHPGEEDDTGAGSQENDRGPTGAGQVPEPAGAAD

T4: EcoNrdR (Escherichia coli, UniProt P0A8D0 1-149)
T4 sequence: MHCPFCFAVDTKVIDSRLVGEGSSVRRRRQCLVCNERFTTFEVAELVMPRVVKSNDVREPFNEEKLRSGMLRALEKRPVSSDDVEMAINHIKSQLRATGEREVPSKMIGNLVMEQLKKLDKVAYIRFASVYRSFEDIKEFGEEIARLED


Legend:
Assay in all cases: MST; dATP + ATP; MST, temperature not stated. Lmo: 25 mM Bis-Tris propane pH 6.5, 100 mM KCl, 5 mM MgCl2, 5% glycerol, 1 mM DTT, 0.05% Tween 20, one nucleotide 1 mM or two at 0.5 mM each; Spn: 25 mM HEPES pH 7.2, 250 mM NaCl, 2.5 mM MgCl2, 15% glycerol, 2 mM DTT, 0.1 mg/mL BSA, 0.05% Tween 20, 0.5 mM ATP and/or dATP; Eco: 25 mM Tris pH 8.5, 100 mM NaCl, 7 mM MgCl2, 1 mM DTT, 0.025% Tween 20, 1 mM ATP + 1 mM dATP; …
SpnNrdR = target: T1, SpnNrdR; conditions: protein: recombinant; tags: C-terminal His6; chain copies: 4; label: 5'-Cy5 sense; blunt
LmoNrdR = target: T2, LmoNrdR; conditions: protein: recombinant; tags: C-terminal His6; chain copies: 4; label: 5'-Cy5 sense; blunt
ScoNrdR = target: T3, ScoNrdR; conditions: protein: recombinant; chain copies: 4; label: 5'-Cy5 sense; blunt
EcoNrdR = target: T4, EcoNrdR; conditions: protein: recombinant; chain copies: 4; label: 5'-Cy5 sense; blunt

Binder | Kd (SpnNrdR) [nM] | Kd (LmoNrdR) [nM] | Kd (ScoNrdR) [nM] | Kd (EcoNrdR) [nM]
Synt 15 bp spacer (dsDNA) DNA 1: GCCAAACACAACATCTAGTGGTTGGATAGCGTGAGCACACAACATCTAGTGGACCTC DNA 2: GAGGTCCACTAGATGTTGTGTGCTCACGCTATCCAACCACTAGATGTTGTGTTTGGC | 55 ± 14 | 1 ± 0.2 | 45 ± 13 | –
Synt 19 bp spacer (dsDNA) DNA 1: GCCAAACACAACATCTAGTGGTTGGATAGCGTGAAGTAGCACACAACATCTAGTGGACCTC DNA 2: GAGGTCCACTAGATGTTGTGTGCTACTTCACGCTATCCAACCACTAGATGTTGTGTTTGGC | 11600 ± 340 | 51 ± 7 | 1660 ± 221 | 601 ± 113
Synt 24 bp spacer (dsDNA) DNA 1: GCCAAACACAACATCTAGTGGTTGGATAGCGTGAATTCACCTAGCACACAACATCTAGTGGACCTC DNA 2: GAGGTCCACTAGATGTTGTGTGCTAGGTGAATTCACGCTATCCAACCACTAGATGTTGTGTTTGGC | 9200 ± 374 | 26 ± 3 | 763 ± 104 | 141 ± 34
Synt 12 bp spacer (dsDNA) DNA 1: GCCAAACACAACATCTAGTGGTTGGATAGGAGCACACAACATCTAGTGGACCTC DNA 2: GAGGTCCACTAGATGTTGTGTGCTCCTATCCAACCACTAGATGTTGTGTTTGGC | 5060 ± 511 | 37 ± 6 | 580 ± 79 | 1380 ± 309
Synt 13 bp spacer (dsDNA) DNA 1: GCCAAACACAACATCTAGTGGTTGGATAGTGAGCACACAACATCTAGTGGACCTC DNA 2: GAGGTCCACTAGATGTTGTGTGCTCACTATCCAACCACTAGATGTTGTGTTTGGC | 3940 ± 290 | 11 ± 1.8 | 158 ± 19 | 117 ± 24
Synt 20 bp spacer (dsDNA) DNA 1: GCCAAACACAACATCTAGTGGTTGGATAGCGTGACAGTAGCACACAACATCTAGTGGACCTC DNA 2: GAGGTCCACTAGATGTTGTGTGCTACTGTCACGCTATCCAACCACTAGATGTTGTGTTTGGC | 12300 ± 388 | 122 ± 10 | 2190 ± 449 | 3320 ± 540
Eco nrdHIEF box 1 duplicated (dsDNA) DNA 1: GTCTCTTGCTATATATTGTGTGGTTGAATCTTTTTTTTGCTATATATTGTGTCTCTG DNA 2: CAGAGACACAATATATAGCAAAAAAAAGATTCAACCACACAATATATAGCAAGAGAC | – | – | – | 213 ± 40
Eco nrdHIEF box 2 duplicated (dsDNA) DNA 1: GTCTCCAACTACATCTAGTATGGTTGAATCTTTTTTCAACTACATCTAGTATCTCTG DNA 2: CAGAGATACTAGATGTAGTTGAAAAAAGATTCAACCATACTAGATGTAGTTGGAGAC | – | – | – | 99 ± 33
Sth nrdDG (16 bp spacer) (dsDNA) DNA 1: TCGAAAATCAATATATAGTGGTTGAGATAAAAATATACCACAATATATTGATTTTCCT DNA 2: AGGAAAATCAATATATTGTGGTATATTTTTATCTCAACCACTATATATTGATTTTCGA | 1150 ± 320 | – | – | –
Synt 25 bp spacer (dsDNA) DNA 1: GCCAAACACAACATCTAGTGGTTGGATAGCGTGAAGTTCACCTAGCACACAACATCTAGTGGACCTC DNA 2: GAGGTCCACTAGATGTTGTGTGCTAGGTGAACTTCACGCTATCCAACCACTAGATGTTGTGTTTGGC | 4370 ± 343 | 25 ± 12 | 4050 ± 272 | 326 ± 44
Synt 26 bp spacer (dsDNA) DNA 1: GCCAAACACAACATCTAGTGGTTGGATAGCGTGAAGTTCCACCTAGCACACAACATCTAGTGGACCTC DNA 2: GAGGTCCACTAGATGTTGTGTGCTAGGTGGAACTTCACGCTATCCAACCACTAGATGTTGTGTTTGGC | 2910 ± 225 | – | 4400 ± 355 | 24 ± 7
Synt 18 bp spacer (dsDNA) DNA 1: GCCAAACACAACATCTAGTGGTTGGATAGCGTGAAGTGCACACAACATCTAGTGGACCTC DNA 2: GAGGTCCACTAGATGTTGTGTGCACTTCACGCTATCCAACCACTAGATGTTGTGTTTGGC | 6600 ± 536 | 3 ± 0.6 | 476 ± 80 | 66 ± 12
Synt 27 bp spacer (dsDNA) DNA 1: GCCAAACACAACATCTAGTGGTTGGATAGCGTGAAGTTACCACCTAGCACACAACATCTAGTGGACCTC DNA 2: GAGGTCCACTAGATGTTGTGTGCTAGGTGGTAACTTCACGCTATCCAACCACTAGATGTTGTGTTTGGC | 3190 ± 238 | 18 ± 6 | 3500 ± 626 | 27 ± 8
Sth nrdHEF (16 bp spacer) (dsDNA) DNA 1: TCAAAACACAAGATATAGGGTTGTGTTTCAATACTAAACACAAAATATTGTATTCCTT DNA 2: AAGGAATACAATATTTTGTGTTTAGTATTGAAACACAACCCTATATCTTGTGTTTTGA | 800 ± 250 | – | – | –
Synt 16 bp spacer (dsDNA) DNA 1: GCCAAACACAACATCTAGTGGTTGGATAGCGTGAAGCACACAACATCTAGTGGACCTC DNA 2: GAGGTCCACTAGATGTTGTGTGCTTCACGCTATCCAACCACTAGATGTTGTGTTTGGC | 41 ± 11 | 1 ± 0.4 | 28 ± 7 | 82 ± 22
Synt 17 bp spacer (dsDNA) DNA 1: GCCAAACACAACATCTAGTGGTTGGATAGCGTGAAGGCACACAACATCTAGTGGACCTC DNA 2: GAGGTCCACTAGATGTTGTGTGCCTTCACGCTATCCAACCACTAGATGTTGTGTTTGGC | 340 ± 83 | 1 ± 0.4 | 21 ± 7 | 45 ± 6
Synt 14 bp spacer (dsDNA) DNA 1: GCCAAACACAACATCTAGTGGTTGGATAGCTGAGCACACAACATCTAGTGGACCTC DNA 2: GAGGTCCACTAGATGTTGTGTGCTCAGCTATCCAACCACTAGATGTTGTGTTTGGC | 699 ± 109 | 2 ± 0.5 | 154 ± 28 | 169 ± 27
